# B1: Glutamate receptor 4 (Rattus norvegicus (Rat)), P19493 (parent)
# chain: MRIICRQIVLLFSGFWGLAMGAFPSSVQIGGLFIRNTDQEYTAFRLAIFLHNTSPNASEAPFNLVPHVDNIETANSFAVTNAFCSQYSRGVFAIFGLYDKRSVHTLTSFCSALHISLITPSFPTEGESQFVLQLRPSLRGALLSLLDHYEWNCFVFLYDTDRGYSILQAIMEKAGQNGWHVSAICVENFNDVSYRQLLEELDRRQEKKFVIDCEIERLQNILEQIVSVGKHVKGYHYIIANLGFKDISLERFIHGGANVTGFQLVDFNTPMVTKLMDRWKKLDQREYPGSETPPKYTSALTYDGVLVMAETFRSLRRQKIDISRRGNAGDCLANPAAPWGQGIDMERTLKQVRIQGLTGNVQFDHYGRRVNYTMDVFELKSTGPRKVGYWNDMDKLVLIQDMPTLGNDTAAIENRTVVVTTIMESPYVMYKKNHEMFEGNDKYEGYCVDLASEIAKHIGIKYKIAIVPDGKYGARDADTKIWNGMVGELVYGKAEIAIAPLTITLVREEVIDFSKPFMSLGISIMIKKPQKSKPGVFSFLDPLAYEIWMCIVFAYIGVSVVLFLVSRFSPYEWHTEEPEDGKEGPSDQPPNEFGIFNSLWFSLGAFMQQGCDISPRSLSGRIVGGVWWFFTLIIISSYTANLAAFLTVERMVSPIESAEDLAKQTEIAYGTLDSGSTKEFFRRSKIAVYEKMWTYMRSAEPSVFTRTTAEGVARVRKSKGKFAFLLESTMNEYTEQRKPCDTMKVGGNLDSKGYGVATPKGSSLGNAVNLAVLKLNEQGLLDKLKNKWWYDKGECGSGGGDSKDKTSALSLSNVAGVFYILVGGLGLAMLVALIEFCYKSRAEAKRMKLTFSEATRNKARLSITGSVGENGRVLTPDCPKAVHTGTAIRQSSGLAVIASDLP
# Variants of: B1
# Details: with mk08_rat Mapk8, P49185
# Sequence of mk08_rat Mapk8, P49185 (P49185 whole entry): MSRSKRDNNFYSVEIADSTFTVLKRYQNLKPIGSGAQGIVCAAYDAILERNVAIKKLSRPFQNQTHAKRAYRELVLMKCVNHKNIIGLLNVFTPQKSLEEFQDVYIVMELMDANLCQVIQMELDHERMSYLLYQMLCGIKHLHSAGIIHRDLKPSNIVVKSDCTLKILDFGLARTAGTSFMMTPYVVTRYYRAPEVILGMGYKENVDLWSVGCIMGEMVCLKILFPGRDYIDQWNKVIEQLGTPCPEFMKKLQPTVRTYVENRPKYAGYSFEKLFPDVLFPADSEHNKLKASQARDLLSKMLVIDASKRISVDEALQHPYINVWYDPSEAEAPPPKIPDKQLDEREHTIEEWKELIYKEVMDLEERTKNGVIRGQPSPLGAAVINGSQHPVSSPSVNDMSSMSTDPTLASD
row,Variant,effect of a mutation on the interaction
1,T855A,disrupting interaction
